The nanobody polyreactivity screen of Harvey et al. (2022)

Assay: yeast display, Sf9 membrane polyspecificity reagent, FACS + sequencing; frameworks hold sequencing errors
Procedure, shortened: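 A nanobody's polyreactivity label depends on the gate it was sorted from. Yeast display cells were stained with 10% biotinylated, detergent-solubilized Sf9 membrane reagent for 1 hour at 4 °C, enriched on streptavidin microbeads and sorted by FACS. The low and high (top ~1%) gates were set on anti-HA fluorescence for expression and streptavidin fluorescence for reagent binding.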

Question: With “QVQLVESGGGLVQAGGSLRLSCAASGSIFVNNALGWYRQAPGKERELVAAISSRSSRTFYADSVKGRFTISRDNAKNTVYLQMNSLKPEDTAVYYCAVKKRAPDGDYWGQGTQVTVSS” as the sequence, how does the “polyreactivity (PSR sort gate)” value read?
Answer: high polyreactivity

Question: For “QVQLVESGGGLVQAGGRLRLSCAASGRIFSQYSMGWYRQAPGKERELVAAISSRGGRTYYADSVKGRFTFSRDNAKNTVYLQMNSLKPEDTAVYYCAAYVYPWGRDYWGQGTQVTVSS”, which “polyreactivity (PSR sort gate)” value is on record?
Answer: high polyreactivity

Question: For “QVQLVESGGGLVQAGGSLRLSCAASGRTFSAYAMGWYRQAPGKERELVADIRRGGGTNYADSVKGRFTISRDNAKNTVYLQMNSLKPEDTAVYYCAAGYLRTYTRRYYWGQGTQVTVSS”, which “polyreactivity (PSR sort gate)” value is on record?
Answer: high polyreactivity

Question: Which “polyreactivity (PSR sort gate)” value does the source give for “QVQLVESGGGLVQARGSLRLSCAASGRSFVINAMGWYRPAPGKERELVAGITSSGNTNYADSVKGRFTISRDNAKNTVYLQMNSLKPEDTAVYDCNAQVYLTWLTYWLYYPPNDYWGQGTQVTVSS” here?
Answer: low polyreactivity

Question: For “QVQLVESGGGLVQAGGSLRLSCAASGRIFWYYAMGWYRQAPGKERELVARISSSGGSTYYADSVKGRFTISRDNAKNTVYLQMNSLKTDYTAVYFWAKERYSGSSRYPMDYWGQGTQVTVSS”, which “polyreactivity (PSR sort gate)” value is on record?
Answer: high polyreactivity

Question: With “QVQIVESGGGLVQAGGSLRLSCAASGRIFSQNTMGWYRQAPGKERELVAVISWRGGRTSYADSVKGRFTISRDNAQNTVYLQMNSLKPEDTAVYYCNAKRYAGSNYDYWGQGTQVTVSS” as the sequence, how does the “polyreactivity (PSR sort gate)” value read?
Answer: high polyreactivity

Question: For “QVQLVESGGGLVQAGGSLRLSCAASGRIFLWYAMGWYRQAPGKERELVAAISSGGSTIYADSVKGRFTISRDNAKNTVYLQMNSLKPEDTAVNYCAAFPTQRRHPLVGFNSWGQGTQVTVSS”, which “polyreactivity (PSR sort gate)” value is on record?
Answer: high polyreactivity

Question: Which “polyreactivity (PSR sort gate)” value does the source give for “QVQLVESAGGLVQAGGSLRLSCAASGRTFGYYAMGWYRQAPGKERELVAAISSGGSTNYADSVKGRFTISRDNAKNTVYLQMNSLKPEDTAVYHCAAKAWYYPGRRNYYQYYYWGQGTQVTVSS” here?
Answer: high polyreactivity

Question: Which “polyreactivity (PSR sort gate)” value does the source give for “QVQLVESGGGLVQAGGSLRLSCAASGITFRDYAMGWYRQAPGKERELVAAISTRGVRTYYADSVKGRFTISRDNAKNTVYLQMNSLKPEDTAVYYCAARSVTYWWVGYEFYYWGQGTQVTVSS” here?
Answer: high polyreactivity

Question: With “QVQLVESGGGLVQAGGSLRLSCAASGRIFYRYAMGWYRQAPGKERELVAAIRSGGRTNYADSVKGRFTISRDNAKNTVYLQMNSLKPEDTAVYYCNAVWRYYRKRRAGDFGYWGQGTQVTVSS” as the sequence, how does the “polyreactivity (PSR sort gate)” value read?
Answer: low polyreactivity

Question: For “QVQLVESGGGLVQAGGSLRLSCAASGRILPRNAMGWYRQAPGKERELVAAISWDGGSTYYADSVKGRFTISRDNAKNTVYLPMIRLKPEDTAVYYCATDYPSLHRGMDYWGQGTQVTVSS”, which “polyreactivity (PSR sort gate)” value is on record?
Answer: low polyreactivity

Question: For “QVQLVESGGGLVQAGGSLRLSCAASGSTVRYNAMGWYRQARGIERELVAAISYGSSTNYADSVKGRFTISRDNAKNTVFLQMNSLKPEDTAVYYCAAQPGYYDDFYYWGHGTQVTVSS”, which “polyreactivity (PSR sort gate)” value is on record?
Answer: low polyreactivity

Question: For “QVQHVESGGGLVQAGGSLRLSCAASGSIFITYAMGWYRQAPGKERELVAAIRDSGDRTYYADSVKGRFTISRDNAKNTVYLQMNSLKPEDTAVYYCNARWQEPQKYDYWGQGTQVTVSS”, which “polyreactivity (PSR sort gate)” value is on record?
Answer: low polyreactivity

Question: With “QVQLVESGGGLVQAGVSLRLSCAASGSTFGRYTMGWYRQAPGKERELVAVITRGGDSTYYADSVKWRFTISRDNAKNTVYLQMNSLKPEDTAVYYCNAETNDWYYQAYLEVEYWGQGTQETVSS” as the sequence, how does the “polyreactivity (PSR sort gate)” value read?
Answer: low polyreactivity

Question: With “QVQLVDSGGGLVQAGGSLRESCAASGSTFYYNDMGWSRQAPGKDRELVAAIRTSGSTNYAESVKGRFTLSRDNAKNTVYLQMNSLKPEDTEVYYCNAVVRHWFPGWYGRGDDYWGQGTQVTVSS” as the sequence, how does the “polyreactivity (PSR sort gate)” value read?
Answer: low polyreactivity

Question: For “QVQLVESGGGLVQAGGSLRLSFAASGSIFFGNAKGCYRQAPVKERELVAAITRRGGSTYYADSVKGRFTISRDNAKNPVYLQMYSLKAEDTAVYYCNGVSKRYGYGYWGQGTQVTVSS”, which “polyreactivity (PSR sort gate)” value is on record?
Answer: high polyreactivity

Question: For “QVQLVESVVGLVQAGGSLRLSCAASGSTFYTYAMGWYRQAPGKERELVAAISYRGGSTYYADSVKGRFTISRDNAKNTVDLQMNSLKPEDTAVFYCNVDGVVVGNKRGGYDYWGQGTQVTVSS”, which “polyreactivity (PSR sort gate)” value is on record?
Answer: low polyreactivity

Question: For “QVQLVESGGGLVQAGGRLRLSCAASGSIFYRSAMGWYRQAPGKERELVAAITRSDGRTYYADSVKGRFTISRDNAKNTVYLQMNSLKPEDTAVYYCNKDGAYKTAYKRWTLYDYWGQGTQVTVSS”, which “polyreactivity (PSR sort gate)” value is on record?
Answer: low polyreactivity

Question: Which “polyreactivity (PSR sort gate)” value does the source give for “QVQLVESGGGLVQAGGSLRLSCAASGSIFPYYAMGWYRQSPGKERELVASSNQSDGTTYYADSVKGRFTISRDNAKNTVYLQMNSLKPEDTAVYYCAADTTLQAFIRYRPIGSYDSWGQGTQVTVSS” here?
Answer: low polyreactivity

Question: Which “polyreactivity (PSR sort gate)” value does the source give for “QVQLVESGGGLVQAGGRLRLSCAASVNTFGANAMGWYRQAPGKESELVADITQSGGSTYYADSVKGRFTISRDNAKNTVYLQMNSLKPEDTALYYCNIVTRYYTPFEEYDYWGQGTQVTVSS” here?
Answer: low polyreactivity

Question: With “QVQLVESGGGLVQAGGSLRLSCAASGSTFDTNAMGWYRQAPGKDRELVAAITSGGNTYADSVKGRFTISRDNAKNTVYLQMNSLKPEDTAVYYCAAEDVYTGWYDYWGQGTQVTVSS” as the sequence, how does the “polyreactivity (PSR sort gate)” value read?
Answer: low polyreactivity

Question: For “QVQLVESGGGLVQPVGSLRLSCAASGYTFPRYTMGWSRQAPGKERELVAAITSSGSTNYADSVKGRFTISRDNAKNTVYLQMNSLKPEDTAVYYCNKARIRTWSRGYDYWGQGTQLTVSS”, which “polyreactivity (PSR sort gate)” value is on record?
Answer: high polyreactivity

Question: For “QVQLVESGGGLVQAGGSLRLSCAASGRNFPVNAMGWYRQAPGKERELVAAISTTGARTYYADSVKGRFTISRDNAKNTVYLQMNSLKPEDTAVYYCAAKQFSVTLSNYWGQGTQVTVSS”, which “polyreactivity (PSR sort gate)” value is on record?
Answer: low polyreactivity

Question: Which “polyreactivity (PSR sort gate)” value does the source give for “QVQLVESGGGLVQAGGSLRLSCAASGIIIRYYAMGWYRQAPGKERELVADITTGGTTYYADSVKGRFTISRDNAKNTVYLQMNSLKPEDTAVYYCAAYYFPTYSKTYIYPFDYWGQGTQVTVSS” here?
Answer: low polyreactivity

Question: With “QVQLVESGGGLVQAGGSLRLSCAASGNTFAYNVMGWYRQAPGKERELVAAISRSGGSTYYADSVKGRFTISRDNAKNTVYLQMNSLKPEDTAVYYCAAVGRRVRPEGSYNRWGHDYWGQGTQVTVSS” as the sequence, how does the “polyreactivity (PSR sort gate)” value read?
Answer: high polyreactivity

Question: With “QVQLVESGGGLVQAGGSLRLSGAASGSIFPGYAMGWYRQPPGKERELVATITWSGGSTYYADSVKGRFTISRDNAKNTVYLQMNSLKPEDSAVYYCAAERSWYTGFARDYDYWGQGTQVTVSS” as the sequence, how does the “polyreactivity (PSR sort gate)” value read?
Answer: low polyreactivity

Question: For “QVQLVESGGGLVQAGGSLRLSCAASGSTLSINAMGGYRQAAGKERELVAGITYSGGSEYYADSVKGRFSISRDNAKNNVYLQMNSMKPEDTAVYYCNKASGVYYGHLDYWRQGTQVTVSS”, which “polyreactivity (PSR sort gate)” value is on record?
Answer: low polyreactivity

Question: Which “polyreactivity (PSR sort gate)” value does the source give for “QVQLVESGGGLVQAGGSLRLSCAASGNNFYINAMGSYRQAPGKERELVAAIRGGGSTYYADSVKGRFTISRDNAKNTVYLQMNSLKPEDTAVYYCAARGRRLNPQYRAFGMDYWGQGTQVTVSS” here?
Answer: high polyreactivity

Question: With “QVHLVESGGALVQAGRSLRLSCAASGSTFTINVKGWYRQAPGKERELVAAINGGGRTNYADSVKGRFTISRDNAKNTVYLLMNSLKPEDTAVYYCAADGLSNVRQMDYWGQGTQVTVSS” as the sequence, how does the “polyreactivity (PSR sort gate)” value read?
Answer: low polyreactivity

Question: For “QVQLVESGGGLVQAGGTLRLSCAASGITFSDYTMGWYRQAPGKERELVDAISTSGGSTYYADSVKGRFTISRDNAKNTVYLQMNSQKPEDTAVYYCAAISAVTLRGYYYWGQRTQVTVSS”, which “polyreactivity (PSR sort gate)” value is on record?
Answer: high polyreactivity

Question: With “QDQLVESVGDLVQAGGSLRLSCAASGGIFQKYVMGWYRQAPGKERELVARITSVGSTYYADSVKGRFTISRDNAKNTVYLQMNSLKPEDTAVYYCNAELYRRSQGYRFTAFDYWGQGTQVTVSS” as the sequence, how does the “polyreactivity (PSR sort gate)” value read?
Answer: low polyreactivity

Question: For “QVQLVESGGGLVQAGGSLRLSCAASGFIFAVNAMGWYRQAPGKERELVATIRATTTSTYADSVKGRFTISRDNAKNTVYLQMNSLKPEDTAVYYCATDVRTISFEYDYWGQGTQVTVSS”, which “polyreactivity (PSR sort gate)” value is on record?
Answer: low polyreactivity

Question: With “QVQLVESGGGLVQAGGSLRLSCAASGSIFTKYAMGWYRQAPGKERELLAAITSSSGRTYYADSVKGRFTISRDNAKNTVYLQMNSLKPEDTAVYYCNRGKRVAVSYRPGGYDYWGQGTQVTVSS” as the sequence, how does the “polyreactivity (PSR sort gate)” value read?
Answer: high polyreactivity

Question: Which “polyreactivity (PSR sort gate)” value does the source give for “QVQLVESGGGLVQAGGSLRLSCAASGRIFYVYTMGWYRQAPGKERELVAAITWRGGSTYYADSVKGRFTISRDNAKNTVYLQMNSLKPEDTAVYYCATAQWVGYWDDYWGQGTQVTVSS” here?
Answer: high polyreactivity

Question: With “QVQLVESGGGLVQAGGSLRLSCAASGLTFHRYAMGWYRQAPGKERELVADISSGDSTNYADSVKGRFTISRDNAKNTVYLQMTSLKPEDTAVYYCNTDGYIYRYRFDYWGQGTQVTVSS” as the sequence, how does the “polyreactivity (PSR sort gate)” value read?
Answer: low polyreactivity

Question: Which “polyreactivity (PSR sort gate)” value does the source give for “QVQLVESGGGLVQAGGSLRLSCAASGRTFWAYAMGWYRPAPGKERELVSAITTSGGSTNYADSVKGRFTISRDNAKNTVYLHMIRLKPEDTAVYYCNADPTYHVVNGVGYWGQGTQVTVSS” here?
Answer: low polyreactivity

Question: For “QVQLVESGGGLVQAGGSLRLSCAASGFIFKPYDMGWYRQARGKEREFVAAITYSGGRTYYADSVKGRFTISRDNAKNTVYLHMNSLKPEDTAVYYCAADQYWWYWYDYWGQGTQVTVSS”, which “polyreactivity (PSR sort gate)” value is on record?
Answer: high polyreactivity

Question: For “QVQLVESGGGLVQAGGSLRLSCAASGRTSGFNTMGWYRQAPGKERELVAAISFSGGSTYYADSVKGRFTISRDNAKNTGYLQMNSLKPEDTAVYYCAAELERDEEYDYWGQGTQVTVSS”, which “polyreactivity (PSR sort gate)” value is on record?
Answer: low polyreactivity

Question: For “QVQLVESGGGLVQAGGSLRLSCASGSTYVYAMGWYRQAPGKERELVATISSTGSTYYADSVKGRFTISRDNAKNTVYLQMNSLKQEDTAVYYCAADVWNNGWIYGSYDEYDYWGQGTQVTVSS”, which “polyreactivity (PSR sort gate)” value is on record?
Answer: high polyreactivity

Question: With “QVQLVESGGGLVQAGGSLRLSCAASGSTFVYYTMGWYRPAPGKERELVAAITSGTSTNYADSVKGRFTISRDNAKNTVYLQMNSLKPEDTAVYDCNAQRRGTYYWGQGTQVTVSS” as the sequence, how does the “polyreactivity (PSR sort gate)” value read?
Answer: high polyreactivity

Question: With “QGQLVESGGGLVQAGGSLRLSCAASGSTLVYNDMGWYRQAPGKEREFVAAISISGTSTYADSVKGRFTISRDNAKNTVYLQMNSLKPEDTAVYWGQGTQVTVSS” as the sequence, how does the “polyreactivity (PSR sort gate)” value read?
Answer: low polyreactivity

Question: With “QVQLVESGGGLVQAGGTLRLSCAASGRIFGVYAMGWSRQAPGKERELVAAIRWSGGSTYYADSVKGRFTISRDNAKTTVYLQMNSLKPEDTAVYYCAAVGGVTRGNQYVRYGYWGQGTQVTVSS” as the sequence, how does the “polyreactivity (PSR sort gate)” value read?
Answer: high polyreactivity

Question: With “QVQLVESGGGLVQAGGSLRLSCAASGSTLRGNAMGWYRPAPGKERELVAAITGRGTRTYYADSVKGRFTISRDNAKNTVYLQMNSLKPEDTAVYYCAAKGRLYPGWEYYYWGQGTQVTVSS” as the sequence, how does the “polyreactivity (PSR sort gate)” value read?
Answer: high polyreactivity
